From patent US20190309059A1 (SHANGHAI PHARMAEXPLORER, published 2019)

Assays:
[1] = target: cynomolgus IL-13 (purchased from sino biological) (cynomolgus) (UniProt Q0PW92); test: ELISA, cynomolgus IL-13; antibody at 0.53 nM
[2] = target: cynomolgus IL-13 (purchased from sino biological) (cynomolgus) (UniProt Q0PW92); test: ELISA, cynomolgus IL-13; antibody at 0.004 nM
[3] = target: his-labeled human IL-13 (immunogen A) (human) (UniProt P35225); test: SPR (Biacore), antibody captured by anti-human Fc, immunogen A as analyte
[4] = target: his-labeled human IL-13 (immunogen A) (human) (UniProt P35225); test: FACS blocking, biotin-IL-13 on IL-13Ra1/IL-4Ra HEK293 cells; antibody at 0.05 nM
[5] = target: his-labeled human IL-13 (immunogen A) (human) (UniProt P35225); test: FACS blocking, biotin-IL-13 on IL-13Ra1/IL-4Ra HEK293 cells; antibody at 0.01 nM
[6] = target: his-labeled human IL-13 (immunogen A) (human) (UniProt P35225); test: FACS blocking, biotin-IL-13 on IL-13Ra2 HEK293 cells; antibody at 166.67 nM
[7] = target: his-labeled human IL-13 (immunogen A) (human) (UniProt P35225); test: FACS blocking, biotin-IL-13 on IL-13Ra2 HEK293 cells; antibody at 0.05 nM
[8] = target: his-labeled human IL-13 (immunogen A) (human) (UniProt P35225); test: FACS blocking, biotin-IL-13 on IL-13Ra1/IL-4Ra HEK293 cells; antibody at 0.27 nM
[9] = target: his-labeled human IL-13 (immunogen A) (human) (UniProt P35225); test: FACS blocking, biotin-IL-13 on IL-13Ra2 HEK293 cells; antibody at 6.67 nM
[10] = target: his-labeled human IL-13 (immunogen A) (human) (UniProt P35225); test: FACS blocking, biotin-IL-13 on IL-13Ra1/IL-4Ra HEK293 cells; antibody at 0.002 nM
[11] = target: his-labeled human IL-13 (immunogen A) (human) (UniProt P35225); test: FACS blocking, biotin-IL-13 on IL-13Ra1/IL-4Ra HEK293 cells; antibody at 6.67 nM
[12] = target: his-labeled human IL-13 (immunogen A) (human) (UniProt P35225); test: ELISA, biotin-immunogen A; antibody at 0.53 nM
[13] = target: cynomolgus IL-13 (purchased from sino biological) (cynomolgus) (UniProt Q0PW92); test: ELISA, cynomolgus IL-13; antibody at 2.67 nM
[14] = target: his-labeled human IL-13 (immunogen A) (human) (UniProt P35225); test: FACS blocking, biotin-IL-13 on IL-13Ra2 HEK293 cells; antibody at 0.002 nM
[15] = target: his-labeled human IL-13 (immunogen A) (human) (UniProt P35225); test: FACS blocking, biotin-IL-13 on IL-13Ra1/IL-4Ra HEK293 cells; antibody at 1.33 nM
[16] = target: his-labeled human IL-13 (immunogen A) (human) (UniProt P35225); test: FACS blocking, biotin-IL-13 on IL-13Ra2 HEK293 cells; antibody at 0.27 nM
[17] = target: his-labeled human IL-13 (immunogen A) (human) (UniProt P35225); test: FACS blocking, biotin-IL-13 on IL-13Ra2 HEK293 cells; antibody at 0.01 nM
[18] = target: his-labeled human IL-13 (immunogen A) (human) (UniProt P35225); test: cell-based or functional assay
[19] = target: his-labeled human IL-13 (immunogen A) (human) (UniProt P35225); test: ELISA, biotin-immunogen A; antibody at 2.67 nM
[20] = target: his-labeled human IL-13 (immunogen A) (human) (UniProt P35225); test: FACS blocking, biotin-IL-13 on IL-13Ra2 HEK293 cells; antibody at 1.33 nM
[21] = target: his-labeled human IL-13 (immunogen A) (human) (UniProt P35225); test: FACS blocking, biotin-IL-13 on IL-13Ra1/IL-4Ra HEK293 cells; antibody at 166.67 nM
[22] = target: his-labeled human IL-13 (immunogen A) (human) (UniProt P35225); test: FACS blocking, biotin-IL-13 on IL-13Ra1/IL-4Ra HEK293 cells; antibody at 33.33 nM
[23] = target: cynomolgus IL-13 (purchased from sino biological) (cynomolgus) (UniProt Q0PW92); test: ELISA, cynomolgus IL-13; antibody at 0.021 nM
[24] = target: his-labeled human IL-13 (immunogen A) (human) (UniProt P35225); test: FACS blocking, biotin-IL-13 on IL-13Ra2 HEK293 cells; antibody at 33.33 nM

cynomolgus IL-13 (purchased from sino biological) (cynomolgus), sequence (Q0PW92 entry or part of it): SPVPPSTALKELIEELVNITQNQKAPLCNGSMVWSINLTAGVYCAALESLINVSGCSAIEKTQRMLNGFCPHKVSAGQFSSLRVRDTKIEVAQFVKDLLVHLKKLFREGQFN

B1: c28A2E11 (mouse-human chimeric IL-13 antibody) (antibody, V domains shown)
VH: EVQLQQSGAELVKPGASVKLSCTASGFNIKDYYMHWVKQRTEQGLEWIGRIDPEDGETKYAPKFHDKATLTADTSSNTAYLQFSSLASEDTAVYYCTRYDYYGPFAYWGQGTLVTVSA
VL: QAVVTQESVLTTSPGETVTLTCRSSTGAVTTSNYANWVQEKPDHLFTGLIGGTNNRAPGVPARFSGSLIGDKAALTITGAQTEDEAIYFCALWYINHFIFGSGTKVTVL
OD450 nm [1]: 0.54
OD450 nm [2]: 0.073
Kd [3]: 7.98 nM
koff [3]: 0.00438 s⁻¹
kon [3]: 549000 M⁻¹ s⁻¹
mean fluorescence intensity [4]: 95.6
mean fluorescence intensity [5]: 102
mean fluorescence intensity [6]: 58
mean fluorescence intensity [7]: 97.8
mean fluorescence intensity [8]: 93
mean fluorescence intensity [9]: 65.7
mean fluorescence intensity [10]: 102
mean fluorescence intensity [11]: 65.2
OD450 nm [12]: 1.93
OD450 nm [13]: 1.34
mean fluorescence intensity [14]: 102
mean fluorescence intensity [15]: 76.6
mean fluorescence intensity [16]: 92.9
mean fluorescence intensity [17]: 99.1
Periostin (pg/mL), MRCS cells + IL-13 5 ng/mL; antibody at 0.0002 nM [18]: 7090 pg/mL
Periostin (pg/mL), MRCS cells + IL-13 5 ng/mL; antibody at 0.001 nM [18]: 6350 pg/mL
Periostin (pg/mL), MRCS cells + IL-13 5 ng/mL; antibody at 0.004 nM [18]: 5500 pg/mL
Periostin (pg/mL), MRCS cells + IL-13 5 ng/mL; antibody at 0.021 nM [18]: 4920 pg/mL
Periostin (pg/mL), MRCS cells + IL-13 5 ng/mL; antibody at 0.11 nM [18]: 4130 pg/mL
Periostin (pg/mL), MRCS cells + IL-13 5 ng/mL; antibody at 0.53 nM [18]: 1650 pg/mL
Periostin (pg/mL), MRCS cells + IL-13 5 ng/mL; antibody at 2.67 nM [18]: 1100 pg/mL
Periostin (pg/mL), MRCS cells + IL-13 5 ng/mL; antibody at 13.3 nM [18]: 1160 pg/mL
VCAM-1 fluorescence intensity, HUVEC + IL-13 0.5 ng/mL + TNFα; antibody at 0.0002 nM [18]: 379
VCAM-1 fluorescence intensity, HUVEC + IL-13 0.5 ng/mL + TNFα; antibody at 0.001 nM [18]: 346
VCAM-1 fluorescence intensity, HUVEC + IL-13 0.5 ng/mL + TNFα; antibody at 0.004 nM [18]: 395
VCAM-1 fluorescence intensity, HUVEC + IL-13 0.5 ng/mL + TNFα; antibody at 0.021 nM [18]: 404
VCAM-1 fluorescence intensity, HUVEC + IL-13 0.5 ng/mL + TNFα; antibody at 0.11 nM [18]: 278
VCAM-1 fluorescence intensity, HUVEC + IL-13 0.5 ng/mL + TNFα; antibody at 0.53 nM [18]: 227
VCAM-1 fluorescence intensity, HUVEC + IL-13 0.5 ng/mL + TNFα; antibody at 2.67 nM [18]: 224
VCAM-1 fluorescence intensity, HUVEC + IL-13 0.5 ng/mL + TNFα; antibody at 13.3 nM [18]: 207
OD450 nm [19]: 2.6
mean fluorescence intensity [20]: 77.7
mean fluorescence intensity [21]: 51.2
mean fluorescence intensity [22]: 61.9
OD450 nm [23]: 0.085
mean fluorescence intensity [24]: 64.8
